Experimental data taken from patent publication US6458929 (LICENTIA, dated 2002).

Columns and labels:
[1] = target: T1, myotilin (full length, 498 residues) (human, UniProt Q9UBF9 1-498); assay: yeast two-hybrid
T1 construct: In the yeast two-hybrid assay, full-length myotilin was expressed as a bait (EG202) or prey (JG4-5) fusion protein; In Western blots and staining it was the endogenous muscle protein; also called full-length myotilin
T1 sequence: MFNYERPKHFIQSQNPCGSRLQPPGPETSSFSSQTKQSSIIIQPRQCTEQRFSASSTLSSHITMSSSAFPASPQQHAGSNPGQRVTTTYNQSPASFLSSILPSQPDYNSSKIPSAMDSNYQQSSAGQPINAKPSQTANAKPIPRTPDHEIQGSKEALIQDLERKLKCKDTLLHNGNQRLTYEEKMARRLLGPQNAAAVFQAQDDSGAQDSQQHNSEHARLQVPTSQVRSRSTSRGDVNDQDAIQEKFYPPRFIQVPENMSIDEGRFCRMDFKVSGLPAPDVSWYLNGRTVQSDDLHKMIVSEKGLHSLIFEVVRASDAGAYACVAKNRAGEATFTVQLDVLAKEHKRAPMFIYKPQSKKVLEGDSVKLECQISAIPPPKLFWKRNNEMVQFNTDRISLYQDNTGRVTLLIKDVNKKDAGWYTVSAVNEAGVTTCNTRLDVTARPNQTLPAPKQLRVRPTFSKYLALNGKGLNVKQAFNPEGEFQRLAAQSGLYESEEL
Description: (§1) The COOH-terminal construct of myotilin was subcloned from a partial cDNA sequence obtained from the skeletal muscle library screen. The authentity of the constructs was verified by sequencing. The genotype of the S. cerevisiae strain BOY1, kindly provided by P. Ljungdahl, Ludwig Institute for Cancer Research, Stockholm, Sweden, is MATαhis3 trp1 leu2::6LexAop-LEU2 URA3::8LexAop-Gal1-LacZ. Boy1 mating type a was made using the YCPHO CUT4 plasmid. Yeast strains were grown at 30° C. in rich medium or in synthetic minimal medium with appropriate amino acid supplements. Bait and prey constructs were transformed into BOY1-yeast of both a and a mating type using the TRAFO protocol and plated on selection plates. Clones were grown to late logarithmic phase in selective medium. For analysis of fusion protein expression, yeast cells from 1 ml of overnight culture were lysed in reducing Laemmli sample buffer, the samples were boiled and analyzed by SDS-PAGE and immunoblotting. Baits and preys were grown on selection plates, replica plated together on rich media plates for mating overnight and replica plated on double (tryptophane and histidine) or triple (tryptophane, histidine and leucine) selection with or without 5-bromo-4-chloro-3-indolyl-β-D-galactopyranoside (X-gal)(Boehringer) for selection of interactions.

[2] = target: T2, spectrin-like repeats R1-R4 (residues 267-749) of chicken smooth muscle α-actinin (chicken, UniProt P05094 267-749); assay: yeast two-hybrid
T2 construct: range 267-749; Expressed as a bait (EG202) or prey (JG4-5) fusion protein in the yeast two-hybrid assay; also called α-actinin (R1-R4)
Description: as §1

T2 sequence (P05094 267-749 limits assumed): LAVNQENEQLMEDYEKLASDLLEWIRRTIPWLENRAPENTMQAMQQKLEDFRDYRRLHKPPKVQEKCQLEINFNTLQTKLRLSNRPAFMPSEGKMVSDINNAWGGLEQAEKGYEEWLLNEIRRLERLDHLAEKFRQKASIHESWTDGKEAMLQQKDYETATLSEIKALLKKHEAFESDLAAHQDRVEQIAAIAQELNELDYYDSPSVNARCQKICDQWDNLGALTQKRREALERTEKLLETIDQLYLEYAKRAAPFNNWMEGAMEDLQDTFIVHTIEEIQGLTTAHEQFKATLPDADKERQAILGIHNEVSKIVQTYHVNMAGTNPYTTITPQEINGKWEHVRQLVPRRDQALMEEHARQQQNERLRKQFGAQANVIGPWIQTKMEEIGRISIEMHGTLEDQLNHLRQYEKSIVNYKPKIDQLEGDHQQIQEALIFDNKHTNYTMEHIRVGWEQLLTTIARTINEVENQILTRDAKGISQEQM

B1: myotilin215-498 (other)
chain: SEHARLQVPTSQVRSRSTSRGDVNDQDAIQEKFYPPRFIQVPENMSIDEGRFCRMDFKVSGLPAPDVSWYLNGRTVQSDDLHKMIVSEKGLHSLIFEVVRASDAGAYACVAKNRAGEATFTVQLDVLAKEHKRAPMFIYKPQSKKVLEGDSVKLECQISAIPPPKLFWKRNNEMVQFNTDRISLYQDNTGRVTLLIKDVNKKDAGWYTVSAVNEAGVTTCNTRLDVTARPNQTLPAPKQLRVRPTFSKYLALNGKGLNVKQAFNPEGEFQRLAAQSGLYESEEL
notes: Expressed in the yeast two-hybrid assay as a prey fusion protein in JG4-5; it could not be expressed as a bait; also called NH2-terminal deletion construct containing the Ig-domains
- binding result [1]: binds
- binding result [2]: no binding
